Read-outs that look alike come from different tables or passages of the source.
Tests used:
[1] = system: metastatic ovarian adenocarcinoma; assay: Patient-A clinical outcome and tumor MRI; assay type: in vivo, human
Excerpt: 2017-2018: Patient-A received 8 cycles of vaccination as add-on therapy, and lived 17 months (528 days) after start of the treatment. […] They died in October 2018.
Patient' tumor MRI findings (Baseline Apr. 15, 2016) (BL: baseline for tumor response evaluation on FIG. 22) Disease was confined primarily to liver and lymph nodes. The use of MRI limits detection of lung (pulmonary) metastasis May 2016-January 2017: Olaparib treatment (FU1: follow up 1 on FIG. 22) Dec. […] Peritoneal carcinomatosis with increased amount of ascites. Progressive hepatic tumor and lymph node
Jul. 26, 2017 (after the 2nd Cycle of PIT): (FU4 on FIG. 22) Progression/Pseudo-Progression • Rapid progression in lymph nodes, hepatic, retroperitoneal and thoracic areas, significant pleural fluid and ascites. Initiate Carboplatin, Gemcitabine, Avastin. Sep. […] Nov. […] Remission in hepatic, retroperitoneal area and lymph nodes

[2] = system: TSA; details: cited from earlier work
[3] = system: subjects of 64 clinical studies; details: published clinical trials, cited from earlier work; for IRR: proportion of subjects in the study population with T cell responses induced by the study vaccine
[4] = FU1, Olaparib treatment May 2016-January 2017
[5] = FU2, Dec. 25, 2016, before PIT vaccine treatment
[6] = FU3, Apr. 6, 2017, after TOPO protocol
[7] = TSA expression rate in Esophageal
[8] = TSA expression rate in HEAD and NECK
[9] = TSA expression rate in LUNG cancer
[10] = TSA expression rate in MELANOMA
[11] = TSA expression rate in PROSTATE cancer
[12] = TSA expression rate in BLADDER cancer
[13] = TSA expression rate in Cervical cancer
[14] = TSA expression rate in GASTRIC cancer
[15] = TSA expression rate in PEDIATRIC
[16] = TSA expression rate in LEUKEMIAS

O=C(c1cc(Cc2n[nH]c(=O)c3ccccc23)ccc1F)N1CCN(C(=O)C2CC2)CC1 [Olaparib]
SUM of lesions (% Δ from BL) [1, 4]: −66.3%
TL1 (% Δ from BL) [1, 4]: −56.1%
TL2 (% Δ from BL) [1, 4]: −100.0%
TL3 (% Δ from BL) [1, 4]: −59.4%
TL4 (% Δ from BL) [1, 4]: −65.8%
SUM of lesions (% Δ from BL) [1, 5]: −76.0%
TL1 (% Δ from BL) [1, 5]: −44.4%
TL2 (% Δ from BL) [1, 5]: −100.0%
TL3 (% Δ from BL) [1, 5]: −62.3%
TL4 (% Δ from BL) [1, 5]: −100.0%

CC[C@@]1(O)C(=O)OCc2c1cc1n(c2=O)Cc2cc3c(CN(C)C)c(O)ccc3nc2-1 [TOPO protocol]
SUM of lesions (% Δ from BL) [1, 6]: −68.9%
TL1 (% Δ from BL) [1, 6]: −44.8%
TL2 (% Δ from BL) [1, 6]: −47.1%
TL3 (% Δ from BL) [1, 6]: −62.0%
TL4 (% Δ from BL) [1, 6]: −100.0%

BAGE-1 (RLMKEESPVVSWRLEPEDGTALCFIF; UniProt Q13072 18-43, looked up)
TSA Expression Rate (ER) ([2]; BREAST): 9%
Expression Rate (ER) % ([2]; TSA expression rate in CRC): 0%
Expression Rate (ER) % [2, 7]: 6%
Expression Rate (ER) % [2, 8]: 6%
Expression Rate (ER) % ([2]; TSA expression rate in Kidney): 0%
Expression Rate (ER) % [2, 9]: 10%
Expression Rate (ER) % [2, 10]: 26%
Expression Rate (ER) % [2, 11]: 0%

BAGE-5 (RLMKEESPVVSWRLEPEDGTALCFIF; UniProt Q86Y27 18-43, looked up)
Expression Rate (ER) % [2, 10]: 9%

CASC5
TSA Expression Rate (ER) ([2]; LUNG): 41%
TSA Expression Rate (ER) ([2]; PANCREATIC): 27%

CDCA1
TSA Expression Rate (ER) ([2]; BREAST): 64%
TSA Expression Rate (ER) ([2]; HCC): 100%
TSA Expression Rate (ER) ([2]; LUNG): 85%
Expression Rate (ER) % [2, 12]: 100%
Expression Rate (ER) % ([2]; TSA expression rate in CRC): 40%
Expression Rate (ER) % [2, 13]: 18%
Expression Rate (ER) % [2, 7]: 22%
Expression Rate (ER) % [2, 14]: 0%
Expression Rate (ER) % ([2]; TSA expression rate in Kidney): 100%
Expression Rate (ER) % [2, 11]: 85%

DBPC
TSA Expression Rate (ER) ([2]; BREAST): 50%
TSA Expression Rate (ER) ([2]; HCC): 40%
TSA Expression Rate (ER) ([2]; LUNG): 30%
TSA Expression Rate (ER) ([2]; OVARIAN): 20%
TSA Expression Rate (ER) ([2]; PANCREATIC): 60%
Expression Rate (ER) % ([2]; TSA expression rate in CRC): 90%
Expression Rate (ER) % [2, 14]: 50%
Expression Rate (ER) % ([2]; TSA expression rate in Kidney): 10%
Expression Rate (ER) % [2, 11]: 40%

DCAF12
TSA Expression Rate (ER) ([2]; LUNG): 89%
Expression Rate (ER) % [2, 11]: 59%

DKK1
TSA Expression Rate (ER) ([2]; PANCREATIC): 84%

DMRT1
Expression Rate (ER) % [2, 11]: 24%

EPHA2
TSA Expression Rate (ER) ([2]; BRAIN): 95%
Expression Rate (ER) % [2, 15]: 100%

EZH2
TSA Expression Rate (ER) ([2]; BRAIN): 100%

Her2/neu peptide vaccine (p688) (RRLLQETEL; UniProt P04626 688-696, looked up, fragment)
IRR [3]: 31%

Her2/neu peptide vaccine (p971) (ELVSEFSRM; UniProt P04626 971-979, looked up, fragment)
IRR [3]: 54%

Iplilimumab (NYESO-1 specific response)
IRR [3]: 72%
ORR ([3]; proportion of subjects with objective response (complete and partial response) after vaccination): 25%

JARID1B
TSA Expression Rate (ER) ([2]; BREAST): 76%
TSA Expression Rate (ER) ([2]; HCC): 29%
TSA Expression Rate (ER) ([2]; LUNG): 55%
TSA Expression Rate (ER) ([2]; OVARIAN): 71%
Expression Rate (ER) % [2, 16]: 60%
Expression Rate (ER) % [2, 10]: 100%
Expression Rate (ER) % [2, 11]: 100%

LDHC
TSA Expression Rate (ER) ([2]; BREAST): 35%
TSA Expression Rate (ER) ([2]; LUNG): 29%
TSA Expression Rate (ER) ([2]; OVARIAN): 43%
TSA Expression Rate (ER) ([2]; THYROID): 25%
Expression Rate (ER) % ([2]; TSA expression rate in CRC): 15%
Expression Rate (ER) % [2, 13]: 83%
Expression Rate (ER) % [2, 8]: 0%
Expression Rate (ER) % ([2]; TSA expression rate in Kidney): 57%
Expression Rate (ER) % [2, 10]: 44%
Expression Rate (ER) % [2, 11]: 38%

MAGE-A10
TSA Expression Rate (ER) ([2]; BREAST): 34%
TSA Expression Rate (ER) ([2]; HCC): 15%
TSA Expression Rate (ER) ([2]; LUNG): 24%
TSA Expression Rate (ER) ([2]; OVARIAN): 38%
TSA Expression Rate (ER) ([2]; PANCREATIC): 1%
TSA Expression Rate (ER) ([2]; THYROID): 2%
Expression Rate (ER) % [2, 12]: 28%
Expression Rate (ER) % ([2]; TSA expression rate in CRC): 3%
Expression Rate (ER) % [2, 13]: 0%
Expression Rate (ER) % [2, 7]: 27%
Expression Rate (ER) % [2, 14]: 30%
Expression Rate (ER) % [2, 8]: 12%
Expression Rate (ER) % ([2]; TSA expression rate in Kidney): 1%
Expression Rate (ER) % [2, 16]: 0%
Expression Rate (ER) % [2, 10]: 45%
Expression Rate (ER) % [2, 15]: 33%
Expression Rate (ER) % [2, 11]: 10%

MPHOSPH1
Expression Rate (ER) % [2, 12]: 90%

MSLN
TSA Expression Rate (ER) ([2]; PANCREATIC): 96%

MUC-1
Expression Rate (ER) % [2, 11]: 34%

NKX3.1
TSA Expression Rate (ER) ([2]; THYROID): 0%
Expression Rate (ER) % [2, 11]: 70%

OIP5
Expression Rate (ER) % [2, 14]: 48%
Expression Rate (ER) % [2, 8]: 12%

PRAME
TSA Expression Rate (ER) ([2]; BRAIN): 56%
TSA Expression Rate (ER) ([2]; BREAST): 49%
TSA Expression Rate (ER) ([2]; LUNG): 63%
TSA Expression Rate (ER) ([2]; OVARIAN): 59%
TSA Expression Rate (ER) ([2]; THYROID): 60%
Expression Rate (ER) % [2, 12]: 19%
Expression Rate (ER) % ([2]; TSA expression rate in CRC): 4%
Expression Rate (ER) % [2, 14]: 21%
Expression Rate (ER) % [2, 8]: 61%
Expression Rate (ER) % ([2]; TSA expression rate in Kidney): 40%
Expression Rate (ER) % [2, 16]: 23%
Expression Rate (ER) % [2, 10]: 90%
Expression Rate (ER) % [2, 15]: 75%
Expression Rate (ER) % [2, 11]: 10%

SOX-6
TSA Expression Rate (ER) ([2]; BRAIN): 60%

SPINLW1
TSA Expression Rate (ER) ([2]; BRAIN): 47%

SSX-1
TSA Expression Rate (ER) ([2]; BRAIN): 0%
TSA Expression Rate (ER) ([2]; BREAST): 9%
TSA Expression Rate (ER) ([2]; HCC): 69%
TSA Expression Rate (ER) ([2]; OVARIAN): 2%
TSA Expression Rate (ER) ([2]; PANCREATIC): 0%
TSA Expression Rate (ER) ([2]; THYROID): 0%
Expression Rate (ER) % [2, 12]: 7%
Expression Rate (ER) % ([2]; TSA expression rate in CRC): 2%
Expression Rate (ER) % [2, 13]: 4%
Expression Rate (ER) % [2, 7]: 0%
Expression Rate (ER) % [2, 14]: 13%
Expression Rate (ER) % [2, 8]: 40%
Expression Rate (ER) % ([2]; TSA expression rate in Kidney): 0%
Expression Rate (ER) % [2, 16]: 31%
Expression Rate (ER) % [2, 9]: 8%
Expression Rate (ER) % ([2]; TSA expression rate in LYMPHOMAS): 6%
Expression Rate (ER) % [2, 10]: 25%
Expression Rate (ER) % [2, 15]: 76%
Expression Rate (ER) % [2, 11]: 7%

SSX-7
TSA Expression Rate (ER) ([2]; BRAIN): 0%

SYCE1
Expression Rate (ER) % [2, 9]: 11%

TDRD4
TSA Expression Rate (ER) ([2]; HCC): 14%

TEX15
TSA Expression Rate (ER) ([2]; BREAST): 0%
TSA Expression Rate (ER) ([2]; LUNG): 21%
TSA Expression Rate (ER) ([2]; THYROID): 0%
Expression Rate (ER) % [2, 12]: 21%
Expression Rate (ER) % ([2]; TSA expression rate in CRC): 0%
Expression Rate (ER) % [2, 7]: 20%
Expression Rate (ER) % [2, 8]: 11%
Expression Rate (ER) % ([2]; TSA expression rate in Kidney): 33%
Expression Rate (ER) % [2, 10]: 27%
Expression Rate (ER) % [2, 11]: 13%

TSGA10
TSA Expression Rate (ER) ([2]; BRAIN): 83%
TSA Expression Rate (ER) ([2]; BREAST): 70%
TSA Expression Rate (ER) ([2]; HCC): 20%
TSA Expression Rate (ER) ([2]; OVARIAN): 35%
Expression Rate (ER) % [2, 12]: 38%
Expression Rate (ER) % ([2]; TSA expression rate in CRC): 5%
Expression Rate (ER) % [2, 10]: 25%
Expression Rate (ER) % [2, 11]: 15%

WT1
TSA Expression Rate (ER) ([2]; BRAIN): 81%
TSA Expression Rate (ER) ([2]; BREAST): 7%
TSA Expression Rate (ER) ([2]; HCC): 86%
TSA Expression Rate (ER) ([2]; OVARIAN): 63%
TSA Expression Rate (ER) ([2]; PANCREATIC): 72%
TSA Expression Rate (ER) ([2]; THYROID): 97%
Expression Rate (ER) % ([2]; TSA expression rate in CRC): 91%
Expression Rate (ER) % [2, 13]: 5%
Expression Rate (ER) % [2, 7]: 88%

Source: patent publication US20200069786A1, “COMPOSITION AND PROCESS FOR PREPARING VACCINE” (TREOS BIO ZRT., priority 2018, published 2020)
